Measurements published in patent publication US20060259987A1 (UNIVERSITY OF UTAH RESEARCH FOUNDATION, published 2006).
Blank lines part the entries; values can stand above or below the binder they belong to.

What was measured:
[1] = biological target: T1, factor Xa (human, UniProt P00742 41-179; P00742 235-488, limits assumed); assay: factor Xa prog: pseudo-first-order loss of chromogenic activity, no heparin, 25 C
T1 construct: also called fXa; human factor Xa
Description: (§1) Polybrene was added with the chromogenic substrate to quench the heparin dependent reaction. […] This was plotted against the heparin concentration to calculate the second-order rate constant for the inhibition by the heparin-ATIII complex, (Kₕₑₚ) from the equation Kobs=Kₕₑₚ[H]ₒ([AT]ₒ/[AT]ₒ+Kd)+Kuncat[AT]ₒ
T1 sequence (P00742 41-179 limits assumed, chain 1 of 2): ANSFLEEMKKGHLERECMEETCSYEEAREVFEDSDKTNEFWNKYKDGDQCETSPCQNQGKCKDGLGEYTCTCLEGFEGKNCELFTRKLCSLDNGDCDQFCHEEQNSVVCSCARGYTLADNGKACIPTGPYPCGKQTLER
T1 sequence (P00742 235-488 limits assumed, chain 2 of 2): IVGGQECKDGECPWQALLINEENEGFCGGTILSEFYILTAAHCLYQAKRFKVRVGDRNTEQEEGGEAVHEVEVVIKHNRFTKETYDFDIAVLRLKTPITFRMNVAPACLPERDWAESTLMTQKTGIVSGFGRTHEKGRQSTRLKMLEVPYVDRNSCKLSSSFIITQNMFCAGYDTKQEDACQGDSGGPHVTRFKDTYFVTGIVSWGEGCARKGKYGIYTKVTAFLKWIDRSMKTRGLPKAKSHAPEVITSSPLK

[2] = biological target: T2, thrombin (human, UniProt P00734 328-622); assay: Kapp IIa/prog relative to plasma.at3
[3] = biological target: T2, thrombin; assay: thrombin prog: pseudo-first-order loss of chromogenic activity, no heparin, 25 C
Description: as §1

[4] = biological target: T1, factor Xa; assay: factor Xa +hep: pseudo-first-order loss of chromogenic activity with heparin
Description: (§2) Polybrene was added with the chromogenic substrate to quench the heparin dependent reaction. The observed pseudo-first-order rate constants were calculated for each heparin (1 nM-5 nM) concentration from the slope of the log of residual proteinase activity vs. time. This was plotted against the heparin concentration to calculate the second-order rate constant for the inhibition by the heparin-ATIII complex, (Kₕₑₚ) from the equation Kobs=Kₕₑₚ[H]ₒ([AT]ₒ/[AT]ₒ+Kd)+Kuncat[AT]ₒ

[5] = biological target: T1, factor Xa; assay: Kapp fXa/hep relative to plasma.at3
[6] = biological target: T2, thrombin; assay: Kapp IIa/hep relative to plasma.at3
[7] = biological target: T2, thrombin; assay: thrombin +hep: pseudo-first-order loss of chromogenic activity with heparin
Description: as §2

[8] = biological target: T1, factor Xa; assay: Kapp fXa/prog relative to plasma.at3
[9] = biological target: T2, thrombin; assay: cell-based or functional assay
[10] = biological target: T1, factor Xa; assay: cell-based or functional assay
[11] = biological target: T3, thrombin (human, UniProt P00734 328-622); assay: cell-based or functional assay; remark: listed apart in the source
[12] = biological target: T4, factor Xa (human, UniProt P00742 41-179; P00742 235-488, limits assumed); assay: cell-based or functional assay; remark: listed apart in the source
T4 sequence (P00742 41-179 limits assumed, form in doubt, chain 1 of 2): as the sequence (P00742 41-179 limits assumed, chain 1 of 2) above
T4 sequence (P00742 235-488 limits assumed, form in doubt, chain 2 of 2): as the sequence (P00742 235-488 limits assumed, chain 2 of 2) above

[13] = biological target: T3, thrombin; assay: heparin cofactor assay, HCA expt #3; ATIII titrated on 10 nM thrombin + 50 ug/ml UFH, chromogenic readout
Description: (§3) After 3 minutes, the reactions were quenched with polybrene and chromogenic substrate S2238 (thrombin) or S2765 (fXa), and the initial rate of chromophore production (405 nm) recorded to obtain a measurement residual, uninhibited thrombin or factor Xa. IC50s were determined from plots of ATIII concentration vs. percent residual target enzyme activity.

[14] = biological target: T4, factor Xa; assay: heparin cofactor assay, HCA expt #3; ATIII titrated on 10 nM fXa + 50 ug/ml UFH, chromogenic readout
Description: as §3

[15] = biological target: T3, thrombin; assay: heparin cofactor assay, HCA expt #2; ATIII titrated on 10 nM thrombin + 50 ug/ml UFH, chromogenic readout
Description: as §3

[16] = biological target: T4, factor Xa; assay: heparin cofactor assay, HCA expt #2; ATIII titrated on 10 nM fXa + 50 ug/ml UFH, chromogenic readout
Description: as §3

B3: 7EVEA.451 (other)
chain: SPVDICTAKPRDIPMNPMCIYRSPEKKATEDEGSEQKIPEATNRRVWELSKANSRFATTFYQHLADSKNDNDNIFLSPLSISTAFAMTKLGACNDTLQQLMEVFKFDTISEKTSDQIHFFFAKLNCRLYRKANKASKLVSANRLFGDKSLTFNETYQDISELVYGAKLQPLDFKENAEQSRAAINKWVSNKTEGRITDVIPSEAINELTVLVLVNTIYFKGLWKSKFSPENTRKELFYKADGESCSASMMYQEGKFRYRRVAEGTQVLELPFKGDDITMVLILPKPEKSLAKVEKELTPEVLQEWLDELEEMMLVVHMPRFRIEDGFSLKEQLQDMGLVDLFSPEKSKLPGIVAEGRDDLYVSDAFHKAFLEVNEEGSEAAASTEVEIAGRSLNPNRVTFKANRPFLVFIREVPLNTIIFMGRVANPCVK
modifications: N-linked glycans added by Drosophila S2 cells; not carried by the letters
notes: Made in Drosophila S2 cells (DES) on the S137A background; N-terminus printed as SPVDI---
IC50 [15]: 400 nM
Rsd. IIa No add; CA expt #8; stg1 conc 200 [11]: 6 % of activity without ATIII
rsd. IIa catG; CA expt #8; stg1 conc 200 [11]: 7 % of activity without ATIII
rsd. IIa hne; CA expt #8; stg1 conc 200 [11]: 12 % of activity without ATIII
rsd. Xa catG; CA expt #8; stg1 conc 200 [12]: 1 % of activity without ATIII
rsd. Xa hne; CA expt #8; stg1 conc 200 [12]: 1 % of activity without ATIII
rsd. Xa no add; CA expt #8; stg1 conc 200 [12]: 1 % of activity without ATIII
IC50 [13]: 450 nM
IC50 [14]: 50 nM
IC50 [16]: 38 nM

B4: 7EVEA.452 (other)
chain: SPVDICTAKPRDIPMNPMCIYRSPEKKATEDEGSEQKIPEATNRRVWELSKANSRFATTFYQHLADSKNDNDNIFLSPLSISTAFAMTKLGACNDTLQQLMEVFKFDTISEKTSDQIHFFFAKLNCRLYRKANKASKLVSANRLFGDKSLTFNETYQDISELVYGAKLQPLDFKENAEQSRAAINKWVSNKTEGRITDVIPSEAINELTVLVLVNTIYFKGLWKSKFSPENTRKELFYKADGESCSASMMYQEGKFRYRRVAEGTQVLELPFKGDDITMVLILPKPEKSLAKVEKELTPEVLQEWLDELEEMMLVVHMPRFRIEDGFSLKEQLQDMGLVDLFSPEKSKLPGIVAEGRDDLYVSDAFHKAFLEVNEEGSEAAASTEVELAGRSLNPNRVTFKANRPFLVFIREVPLNTIIFMGRVANPCVK
modifications: N-linked glycans added by Drosophila S2 cells; not carried by the letters
notes: as for B3
Rsd. IIa No add; CA expt #8; stg1 conc 200 [11]: 12 % of activity without ATIII
rsd. IIa catG; CA expt #8; stg1 conc 200 [11]: 14 % of activity without ATIII
rsd. IIa hne; CA expt #8; stg1 conc 200 [11]: 46 % of activity without ATIII
rsd. Xa catG; CA expt #8; stg1 conc 200 [12]: 1 % of activity without ATIII
rsd. Xa hne; CA expt #8; stg1 conc 200 [12]: 2 % of activity without ATIII
rsd. Xa no add; CA expt #8; stg1 conc 200 [12]: 1 % of activity without ATIII
IC50 [13]: 750 nM
IC50 [14]: 24 nM

B5: 7EVEA.453 (other)
chain: SPVDICTAKPRDIPMNPMCIYRSPEKKATEDEGSEQKIPEATNRRVWELSKANSRFATTFYQHLADSKNDNDNIFLSPLSISTAFAMTKLGACNDTLQQLMEVFKFDTISEKTSDQIHFFFAKLNCRLYRKANKASKLVSANRLFGDKSLTFNETYQDISELVYGAKLQPLDFKENAEQSRAAINKWVSNKTEGRITDVIPSEAINELTVLVLVNTIYFKGLWKSKFSPENTRKELFYKADGESCSASMMYQEGKFRYRRVAEGTQVLELPFKGDDITMVLILPKPEKSLAKVEKELTPEVLQEWLDELEEMMLVVHMPRFRIEDGFSLKEQLQDMGLVDLFSPEKSKLPGIVAEGRDDLYVSDAFHKAFLEVNEEGSEAAASTEVEFAGRSLNPNRVTFKANRPFLVFIREVPLNTIIFMGRVANPCVK
modifications: N-linked glycans added by Drosophila S2 cells; not carried by the letters
notes: as for B3
Rsd. IIa No add; CA expt #8; stg1 conc 200 [11]: 14 % of activity without ATIII
rsd. IIa catG; CA expt #8; stg1 conc 200 [11]: 62 % of activity without ATIII
rsd. IIa hne; CA expt #8; stg1 conc 200 [11]: 35 % of activity without ATIII
rsd. Xa catG; CA expt #8; stg1 conc 200 [12]: 2 % of activity without ATIII
rsd. Xa hne; CA expt #8; stg1 conc 200 [12]: 1 % of activity without ATIII
rsd. Xa no add; CA expt #8; stg1 conc 200 [12]: 1 % of activity without ATIII
IC50 [13]: 450 nM
IC50 [14]: 19 nM

Other lines, results leading:

kapp (apparent second-order inhibition rate constant) [1]: 10700 M⁻¹ s⁻¹
Kapp as a percentage of the plasma ATIII value [2]: 38%
kapp (apparent second-order inhibition rate constant) [3]: 2680 M⁻¹ s⁻¹
kapp (apparent second-order inhibition rate constant) [4]: 1.25e+06 M⁻¹ s⁻¹
Kapp as a percentage of the plasma ATIII value [5]: 217%
Kapp as a percentage of the plasma ATIII value [6]: 34%
kapp (apparent second-order inhibition rate constant) [7]: 2.01e+06 M⁻¹ s⁻¹
Kapp as a percentage of the plasma ATIII value [8]: 510%
IC50 IIa/UFH; HCA #2 [9]: 65 nM
IC50 IIa/UFH; HCA #3 [9]: 47 nM
IC50 IIa/UFH; HCA #4 [9]: 50 nM
rsd. IIa catG; CA #12; stg1 conc 200 [9]: 1%
rsd. IIa catG; CA #14; stg1 conc 200 [9]: 1%
rsd. IIa catG; CA #15; stg1 conc 200 [9]: 1%
rsd. IIa hne; CA #14; stg1 conc 200 [9]: 2%
rsd. IIa hne; CA #15; stg1 conc 200 [9]: 6%
rsd. IIa no add; CA #14; stg1 conc 200 [9]: 2%
rsd. IIa no add; CA #15; stg1 conc 200 [9]: 0%
IC50 fXa/UFH; HCA #2 [10]: 20 nM
IC50 fXa/UFH; HCA #3 [10]: 16 nM
IC50 fXa/UFH; HCA #4 [10]: 13 nM
rsd. Xa catG; CA #12; stg1 conc 200 [10]: 1%
rsd. Xa catG; CA #14; stg1 conc 200 [10]: 1%
rsd. Xa catG; CA #15; stg1 conc 200 [10]: 0%
rsd. Xa hne; CA #14; stg1 conc 200 [10]: 1%
rsd. Xa hne; CA #15; stg1 conc 200 [10]: 1%
rsd. Xa no add; CA #14; stg1 conc 200 [10]: 2%
rsd. Xa no add; CA #15; stg1 conc 200 [10]: 0%
B1: LEAI.474 (other)
chain: SPVDICTAKPRDIPMNPMCIYRSPEKKATEDEGSEQKIPEATNRRVWELSKANSRFATTFYQHLADSKNDNDNIFLSPLSISTAFAMTKLGACNDTLQQLMEVFKFDTISEKTSDQIHFFFAKLNCRLYRKANKASKLVSANRLFGDKSLTFNETYQDISELVYGAKLQPLDFKENAEQSRAAINKWVSNKTEGRITDVIPSEAINELTVLVLVNTIYFKGLWKSKFSPENTRKELFYKADGESCSASMMYQEGKFRYRRVAEGTQVLELPFKGDDITMVLILPKPEKSLAKVEKELTPEVLQEWLDELEEMMLVVHMPRFRIEDGFSLKEQLQDMGLVDLFSPEKSKLPGIVAEGRDDLYVSDAFHKAFLEVNEEGSEAAASTALEAQGRSLNPNRVTFKANRPFLVFIREVPLNTIIFMGRVANPCVK
notes: also called DES.LEAI.474

Rsd. IIa No add; CA expt #8; stg1 conc 200 [11]: 23 % of activity without ATIII
rsd. IIa catG; CA expt #8; stg1 conc 200 [11]: 93 % of activity without ATIII
rsd. IIa hne; CA expt #8; stg1 conc 200 [11]: 53 % of activity without ATIII
rsd. Xa catG; CA expt #8; stg1 conc 200 [12]: 2 % of activity without ATIII
rsd. Xa hne; CA expt #8; stg1 conc 200 [12]: 1 % of activity without ATIII
rsd. Xa no add; CA expt #8; stg1 conc 200 [12]: 1 % of activity without ATIII
IC50 [13]: 610 nM
IC50 [14]: 20 nM
B2: 7EVEA.454 (other)
chain: SPVDICTAKPRDIPMNPMCIYRSPEKKATEDEGSEQKIPEATNRRVWELSKANSRFATTFYQHLADSKNDNDNIFLSPLSISTAFAMTKLGACNDTLQQLMEVFKFDTISEKTSDQIHFFFAKLNCRLYRKANKASKLVSANRLFGDKSLTFNETYQDISELVYGAKLQPLDFKENAEQSRAAINKWVSNKTEGRITDVIPSEAINELTVLVLVNTIYFKGLWKSKFSPENTRKELFYKADGESCSASMMYQEGKFRYRRVAEGTQVLELPFKGDDITMVLILPKPEKSLAKVEKELTPEVLQEWLDELEEMMLVVHMPRFRIEDGFSLKEQLQDMGLVDLFSPEKSKLPGIVAEGRDDLYVSDAFHKAFLEVNEEGSEAAASTEVEWAGRSLNPNRVTFKANRPFLVFIREVPLNTIIFMGRVANPCVK
modifications: N-linked glycans added by Drosophila S2 cells; not carried by the letters
notes: as for B3
